From IntAct's records for PubMed 25512093

Molecular target: bicd2_human BICD2 (UniProt Q8TD16)
Chain of UniProt Q8TD16 (Q8TD16 whole entry): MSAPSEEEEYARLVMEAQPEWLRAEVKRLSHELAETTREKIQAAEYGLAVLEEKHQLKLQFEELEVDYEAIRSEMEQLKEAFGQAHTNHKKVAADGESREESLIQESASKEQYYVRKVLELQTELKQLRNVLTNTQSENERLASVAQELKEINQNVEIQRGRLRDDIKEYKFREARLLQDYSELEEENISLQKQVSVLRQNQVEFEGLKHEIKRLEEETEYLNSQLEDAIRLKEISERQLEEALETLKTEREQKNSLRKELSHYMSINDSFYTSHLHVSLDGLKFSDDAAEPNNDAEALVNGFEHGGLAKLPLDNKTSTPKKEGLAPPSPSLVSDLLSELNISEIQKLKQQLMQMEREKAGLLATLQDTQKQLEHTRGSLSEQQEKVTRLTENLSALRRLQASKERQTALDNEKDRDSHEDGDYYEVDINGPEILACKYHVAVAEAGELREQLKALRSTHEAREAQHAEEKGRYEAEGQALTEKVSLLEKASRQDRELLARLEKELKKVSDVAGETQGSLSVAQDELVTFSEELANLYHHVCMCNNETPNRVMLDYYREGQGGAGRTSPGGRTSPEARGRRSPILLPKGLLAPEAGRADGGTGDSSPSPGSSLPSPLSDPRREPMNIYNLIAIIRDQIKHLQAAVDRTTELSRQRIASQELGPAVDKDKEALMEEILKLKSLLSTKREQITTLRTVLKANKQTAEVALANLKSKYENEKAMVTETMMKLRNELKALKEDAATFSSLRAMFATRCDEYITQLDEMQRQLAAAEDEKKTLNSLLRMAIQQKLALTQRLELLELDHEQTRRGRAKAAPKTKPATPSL

Substance | effect of a mutation on the interaction
Cytoplasmic dynein 1 heavy chain 1 (Homo sapiens), Q14204 R264L | increasing interaction strength
Cytoplasmic dynein 1 heavy chain 1 (Homo sapiens), Q14204 R598C | increasing interaction strength
